{"source": "patent US20230212268A1", "about": "(UNM RAINFOREST INNOVATIONS, published 2023)", "binders": {"B1": {"name": "EbovGPscFv27-5 (scFv)", "scFv": "MAWSHPQFEKTGSGQVQLQQSGAELVKPGASVKSSCTATGFNIKDYYIHWVKQRTEQGLEWIGRIDPEDGETKYAPKFQGKATITADISPNTAYLQPSSLTSEDTAVYYCTRGGYYGPWYFDVWGTGTTVTVSSGGGGSGGGGSGGGGSGGGGSASLSVSVGETVTITCRASENIYSYLAWYQQKQGKSPQLLVYNAKTLAEGVPSRFSGSGSGTQFSLKINNLQPEDFGSYYCQRHYDTPYTFGGGTKLEIKRADAAPTVSIFPPSSEQLTSGGASVVCFLNNFTHCQELQQDECS"}, "B2": {"name": "EbovGPscFv13-1 (scFv)", "scFv": "MAWSHPQFEKTGSGQVQLQQSGAELVKPGASVKLSCKASGYTFTEYTIHWVKQRSGQGLEWIGWFYPGSGSIKYDEKFKDKATLTADKSSSTVYMELSRLTSEDSAVYFCARHEPYYYGSSYEGPFDYWGQGTTLTVSSGGGGSGGGGSGGGGSGGGGSSPLSVSAGEKVTMSCKSSQSLLNSGNQKNYLAWYQQKPGQPPKLLIYGASTRESGVPDRFTGSGSGTDFTLTISSVQAEDLAVYYCQNDHSYPLTFGAGTKLELKRADAAPTVSIFPPSSEQLTSGGASVVCFLNNFTHCQELQQDECS"}, "B3": {"name": "EbovGPscFv16-1 (scFv)", "scFv": "MAWSHPQFEKTGSGGAELVRSGASVKLSCTASGFNIKDDYMHWVKQRPEQGLKWIGWIDPENGDTEYASKLQGKATITADTSSNTAYLQLSSLTSEDTAVYYCARPIYYYGSSHWYFDVWGTGTTVTVSSGGGGSGGGGSGGGGSGGGGSLSLPVSLGDQASISCRSSQSLVHSNGNTYLHWYLQKPGQSPKLLIYKVSNRFSGVPDRFSGSGSGTDFTLKISRVEAEDLGVYFCSQSTHVPWTFGGGTKLEVKRADAAPTVSIFPPSSEQLTSGGASVVCFLNNFTHCQELQQDECS"}, "B4": {"name": "EbovGPscFv35-2 (scFv)", "scFv": "MAWSHPQFEKTGSGDVKLQESGPGLVKPSQSLSLTCSVTGYSITSGYYWNWIRQFPGNKLEWMGYISYDGSNNYNPSLKNRISITRDTSKNQFFLKLNSVTTEDTATYYCARESPYYGSSHWYFGVWGTGTTVTVSSGGGGSGGGGSGGGGSGGGGSASLSASVGETVTITCRTSENIYSYLAWYQQKQGKSPQLLVYNAKTLAEGVPSRFSGSGSGTQFSLKINSLQPEDFGSYYCQHHYGIPPWTFGGGTKLEIKRADAAPTVSIFPPSSEQLTSGGASVVCFLNNFTHCQELQQDECS"}, "B5": {"name": "EbovGPscFv22-1 (scFv)", "scFv": "MAWSHPQFEKTGSGQVQLQQPGTELVKPGASVKLSCKASGYTFTSYWMHWVKQRPGQGLEWIGNTNPSNGGTNYNEKFKSKATLTVDKSSNTAYMQLSSLTSEDSAVYYCARSVSGNFAYWGQGTLVTVSAGGGGSGGGGSGGGGSGGGGSLSLPVSLGDQASISCRSSQSLVHSNGNTYLHWYLQKPGQSPKLLIYKVSNRFSGVPDRFSGSGSGTDFTLKISRVEAEDLGVYFCSQSTHVPWTFGGGTKLEIKRADAAPTVSIFPPSSEQLTSGGASVVCFLNNFTHCQELQQDECS"}}, "key": {"[1]": {"molecular_target": "T1, recombinant SUDV glycoprotein (SUDV (Sudan ebolavirus), UniProt Q7T9D9 33-650)", "T1 sequence": "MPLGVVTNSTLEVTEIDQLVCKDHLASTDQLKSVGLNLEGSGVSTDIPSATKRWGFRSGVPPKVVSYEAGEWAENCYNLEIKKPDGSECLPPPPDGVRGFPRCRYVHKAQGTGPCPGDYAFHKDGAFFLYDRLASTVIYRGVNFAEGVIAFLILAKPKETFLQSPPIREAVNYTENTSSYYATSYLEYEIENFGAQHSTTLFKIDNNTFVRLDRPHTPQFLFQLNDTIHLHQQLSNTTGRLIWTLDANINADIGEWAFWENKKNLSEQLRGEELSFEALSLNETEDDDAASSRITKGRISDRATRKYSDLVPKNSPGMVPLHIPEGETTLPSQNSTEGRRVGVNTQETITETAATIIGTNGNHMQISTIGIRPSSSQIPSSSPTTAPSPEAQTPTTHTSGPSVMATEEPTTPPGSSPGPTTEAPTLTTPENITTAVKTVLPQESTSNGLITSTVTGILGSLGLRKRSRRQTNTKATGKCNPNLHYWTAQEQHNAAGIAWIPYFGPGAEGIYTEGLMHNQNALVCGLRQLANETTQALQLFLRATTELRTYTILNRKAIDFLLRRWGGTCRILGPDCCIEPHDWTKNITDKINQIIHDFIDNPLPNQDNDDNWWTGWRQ", "test": "ELISA, GP coated"}, "[2]": {"molecular_target": "T2, recombinant RESTV glycoprotein (RESTV (Reston ebolavirus), UniProt Q66799 34-651)", "T2 sequence": "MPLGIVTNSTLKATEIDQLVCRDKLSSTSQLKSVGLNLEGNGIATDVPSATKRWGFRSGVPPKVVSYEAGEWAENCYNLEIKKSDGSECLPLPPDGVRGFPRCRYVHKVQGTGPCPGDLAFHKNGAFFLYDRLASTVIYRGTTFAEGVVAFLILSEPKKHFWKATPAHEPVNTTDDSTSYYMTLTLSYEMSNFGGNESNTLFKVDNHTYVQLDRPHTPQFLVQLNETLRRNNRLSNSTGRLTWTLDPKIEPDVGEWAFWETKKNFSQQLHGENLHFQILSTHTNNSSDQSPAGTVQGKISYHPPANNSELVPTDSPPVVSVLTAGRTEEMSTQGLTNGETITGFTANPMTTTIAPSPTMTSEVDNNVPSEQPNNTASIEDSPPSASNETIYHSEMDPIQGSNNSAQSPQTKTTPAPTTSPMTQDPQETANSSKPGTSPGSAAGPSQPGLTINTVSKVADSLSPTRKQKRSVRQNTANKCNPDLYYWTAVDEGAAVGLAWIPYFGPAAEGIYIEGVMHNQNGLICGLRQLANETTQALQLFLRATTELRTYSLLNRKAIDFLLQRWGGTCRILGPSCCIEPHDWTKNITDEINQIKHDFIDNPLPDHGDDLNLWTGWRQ", "test": "ELISA, GP coated"}, "[3]": {"molecular_target": "T3, recombinant TAFV glycoprotein (TAFV (Tai Forest virus), UniProt Q66810 33-650)", "T3 sequence": "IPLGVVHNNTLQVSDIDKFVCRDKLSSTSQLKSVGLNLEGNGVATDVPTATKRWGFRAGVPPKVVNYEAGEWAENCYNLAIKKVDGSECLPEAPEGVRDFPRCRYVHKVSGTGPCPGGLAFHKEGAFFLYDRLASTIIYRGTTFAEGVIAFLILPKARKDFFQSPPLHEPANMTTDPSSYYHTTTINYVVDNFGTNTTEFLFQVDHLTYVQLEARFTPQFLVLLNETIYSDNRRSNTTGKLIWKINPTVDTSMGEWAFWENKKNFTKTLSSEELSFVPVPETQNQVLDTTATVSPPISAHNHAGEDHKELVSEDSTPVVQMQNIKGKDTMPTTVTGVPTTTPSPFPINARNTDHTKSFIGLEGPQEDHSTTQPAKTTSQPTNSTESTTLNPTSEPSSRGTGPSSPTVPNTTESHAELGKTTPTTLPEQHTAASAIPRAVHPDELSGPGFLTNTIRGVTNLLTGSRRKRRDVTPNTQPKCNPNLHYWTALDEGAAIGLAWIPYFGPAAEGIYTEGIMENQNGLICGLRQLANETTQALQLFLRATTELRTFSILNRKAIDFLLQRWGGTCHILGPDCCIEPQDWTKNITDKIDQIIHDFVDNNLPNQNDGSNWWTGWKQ", "test": "ELISA, GP coated"}, "[4]": {"molecular_target": "T4, recombinant MARV glycoprotein (MARV (marburgvirus, Ravn), UniProt Q1PDC7 19-648)", "T4 sequence": "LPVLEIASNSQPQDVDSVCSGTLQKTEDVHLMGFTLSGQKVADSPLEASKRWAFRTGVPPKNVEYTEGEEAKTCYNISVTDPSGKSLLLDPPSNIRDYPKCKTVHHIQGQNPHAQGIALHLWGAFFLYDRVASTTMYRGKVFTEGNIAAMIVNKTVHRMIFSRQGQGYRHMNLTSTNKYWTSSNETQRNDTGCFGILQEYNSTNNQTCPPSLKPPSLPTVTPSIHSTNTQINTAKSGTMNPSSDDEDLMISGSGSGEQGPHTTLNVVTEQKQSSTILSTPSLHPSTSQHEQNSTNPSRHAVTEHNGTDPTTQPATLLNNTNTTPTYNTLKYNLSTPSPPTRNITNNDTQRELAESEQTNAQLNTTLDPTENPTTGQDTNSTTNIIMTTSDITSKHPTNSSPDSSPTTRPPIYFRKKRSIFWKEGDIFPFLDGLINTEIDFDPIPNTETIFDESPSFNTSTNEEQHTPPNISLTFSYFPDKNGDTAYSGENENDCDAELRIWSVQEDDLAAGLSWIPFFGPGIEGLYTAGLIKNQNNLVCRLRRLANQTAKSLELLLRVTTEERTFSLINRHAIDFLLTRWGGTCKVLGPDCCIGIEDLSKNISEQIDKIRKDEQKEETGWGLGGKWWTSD", "test": "ELISA, GP coated"}, "[5]": {"molecular_target": "T5, recombinant EBOV glycoprotein (EBOV (Zaire ebolavirus), UniProt Q05320 33-650)", "T5 sequence": "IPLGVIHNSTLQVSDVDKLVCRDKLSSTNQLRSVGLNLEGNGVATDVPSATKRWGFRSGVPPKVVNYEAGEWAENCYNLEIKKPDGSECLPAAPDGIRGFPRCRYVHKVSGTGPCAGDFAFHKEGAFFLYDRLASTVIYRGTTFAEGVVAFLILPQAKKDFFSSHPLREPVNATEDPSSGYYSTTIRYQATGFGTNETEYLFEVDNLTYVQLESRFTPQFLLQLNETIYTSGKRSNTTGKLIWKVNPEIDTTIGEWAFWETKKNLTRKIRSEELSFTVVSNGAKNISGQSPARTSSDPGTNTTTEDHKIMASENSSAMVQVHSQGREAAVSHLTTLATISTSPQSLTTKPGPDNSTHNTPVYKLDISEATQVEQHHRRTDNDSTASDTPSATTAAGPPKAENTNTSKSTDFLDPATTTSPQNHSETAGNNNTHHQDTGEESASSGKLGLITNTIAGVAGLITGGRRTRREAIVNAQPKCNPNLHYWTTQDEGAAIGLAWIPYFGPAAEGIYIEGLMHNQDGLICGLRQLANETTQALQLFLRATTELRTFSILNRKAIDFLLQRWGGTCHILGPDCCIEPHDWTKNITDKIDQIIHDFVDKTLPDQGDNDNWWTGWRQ", "test": "ELISA, GP coated"}, "[6]": {"molecular_target": "T3, recombinant TAFV glycoprotein"}, "[7]": {"molecular_target": "T5, recombinant EBOV glycoprotein", "test": "ELISA dose response, GP coated"}, "[8]": {"molecular_target": "T1, recombinant SUDV glycoprotein", "test": "ELISA dose response, GP coated"}, "[9]": {"molecular_target": "T2, recombinant RESTV glycoprotein", "test": "ELISA dose response, GP coated"}, "[10]": {"molecular_target": "T3, recombinant TAFV glycoprotein", "test": "ELISA dose response, GP coated"}, "[11]": {"molecular_target": "T4, recombinant MARV glycoprotein", "test": "ELISA dose response, GP coated"}, "[12]": {"molecular_target": "T5, recombinant EBOV glycoprotein", "test": "maximal binding from ELISA dose-response fit"}, "[13]": {"molecular_target": "T1, recombinant SUDV glycoprotein", "test": "maximal binding from ELISA dose-response fit"}, "[14]": {"molecular_target": "T2, recombinant RESTV glycoprotein", "test": "maximal binding from ELISA dose-response fit"}, "[15]": {"molecular_target": "T3, recombinant TAFV glycoprotein", "test": "maximal binding from ELISA dose-response fit"}, "[16]": {"molecular_target": "T4, recombinant MARV glycoprotein", "test": "maximal binding from ELISA dose-response fit"}}, "note": "Values joined by “and” are separate entries in the source; they are usually repeats but may differ in a detail not shown here. Equal entries are not always repeated. Where two headings read alike, the source gives them in different places.", "data": [{"binder": "B1", "values": [{"measurement": "binding result", "setting": "[1]", "value": "no binding"}, {"measurement": "binding result", "setting": "[2]", "value": "no binding"}, {"measurement": "binding result", "setting": "[3]", "value": "no binding"}, {"measurement": "binding result", "setting": "[4]", "value": "no binding"}]}, {"binder": "B2", "values": [{"measurement": "binding result", "setting": "[5]", "value": "binds"}]}, {"binder": "B3", "values": [{"measurement": "binding result", "setting": "[5]", "value": "binds"}]}, {"binder": "B4", "values": [{"measurement": "binding result", "setting": "[5]", "value": "binds"}]}, {"binder": "B5", "values": [{"measurement": "EC50", "setting": "[6]", "value": 12, "unit": "µg/mL"}, {"measurement": "EC50", "setting": "[7]", "value": "< 12 µg/mL and 7.36 µg/mL"}, {"measurement": "EC50", "setting": "[8]", "value": "< 12 µg/mL and 7.94 µg/mL"}, {"measurement": "EC50", "setting": "[9]", "value": "9 µg/mL and < 12 µg/mL"}, {"measurement": "EC50", "setting": "[10]", "value": "11.6 µg/mL and < 12 µg/mL"}, {"measurement": "EC50", "setting": "[11]", "value": "< 12 µg/mL and 6.58 µg/mL"}, {"measurement": "Bmax signal", "setting": "[12]", "value": 370000, "unit": "relative absorbance units"}, {"measurement": "Bmax signal", "setting": "[13]", "value": 280000, "unit": "relative absorbance units"}, {"measurement": "Bmax signal", "setting": "[14]", "value": 320000, "unit": "relative absorbance units"}, {"measurement": "Bmax signal", "setting": "[15]", "value": 270000, "unit": "relative absorbance units"}, {"measurement": "Bmax signal", "setting": "[16]", "value": 250000, "unit": "relative absorbance units"}]}]}
